B1: TRAF3IP2 (parent)
chain: PRPPSNPPARGTLKTSNLPEELRK

Variants of: B1
Experiment: protein stability index of a GFP-peptide fusion (GPS, HEK-293T) (PSI 1-6); higher = more stable
Conditions: c terminus: a fixed tail appended
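Also: lentivirally expressed fusions sorted by FACS into six bins by GFP to DsRed ratio, PSI derived from sequencing read proportions per bin multiplied by bin number.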

Protein stability index of substitutions, site by site:
R23: G 4.7; I 4.39; Y 4.47; Q 5.23; C 4.64; L 4.19; E 4.94; H 4.7; N 5.2; K 4.92; V 4.13; S 5.16; W 3.42; A 4.7; M 4.31; F 3.92; P 5.21
N17: H 4.58; L 4.49; I 4.55; D 5.09; K 4.07; M 4.8; V 3.94; C 4.29; G 4.82; Y 4.77; W 3.51; P 5.08; S 4.91; F 4.42; A 5.05; E 5.13; T 4.21
S16: T 4.92; A 4.41; Q 4.48; N 4.37; L 4.75; E 4.95; H 4.33; G 4.79; M 4.7; F 4.47; I 4.49; Y 4.48; C 4.19; K 4.74; V 4.17; D 4.83; R 4.79; W 3.47
L22: C 5.65; G 4.15; P 5.15; E 5.61; W 4.25; Q 5.39; T 5.4; D 5.22; I 4.56; M 4.75; A 4.55; N 4.93; V 3.16; S 4.96; Y 4.47; H 5.11; F 4.24; K 4.97; R 4.82
K14: D 5.37; F 4.84; V 5.17; C 4.76; Y 4.77; T 5.09; P 4.83; M 4.94; I 4.82; E 5.27; S 5.4; L 5.17; A 5.35; G 4.68; Q 5.21; W 4.58; H 5.22; N 4.97; R 4.65
T12: S 4.35; I 4.54; C 4.24; G 4; R 4.58; K 4.7; Q 4.52; W 3.65; H 4.75; A 4.66; D 4.88; Y 4.78; N 4.42; L 4.65; V 4.41; M 4.56; F 4.3; E 4.54
R10: L 4.96; G 4.27; W 4.76; E 4.47; C 4.58; M 4.64; F 4.49; V 5.64; Y 4.89
G11: W 3.54; F 3.69; C 4.25; P 4.42; S 4.54; A 4.73; V 4.37; R 3.85; L 3.88; D 4.86; Y 4.28; E 4.96
P19: E 5.1; M 4.47; S 4.75; T 4.14; C 4.7; F 4.28; G 4.36; K 4.59; Y 3.54; D 4.89; H 3.36; Q 4.75; V 4.09; L 4.43; N 4.83; I 4; A 4.48; W 3.98; R 4.14
K24: F 4.33; Y 3.78; E 4.99; A 4.86; Q 4.66; M 4.26; G 4.05; L 4.31; R 4.75; S 4.7; D 5.14; V 4.53; H 4.79; T 4.8; N 4.87; P 3.9; I 4.24; C 4.9; W 4.19
